In this assay the target is T1, human transmembrane 4 L6 family member 5 (TM4SF5) on cells (human, UniProt O14894 1-197).
T1 construct: whole, on cells; also called endogenous TM4SF5; TM4SF5 protein
T1 sequence (looked up): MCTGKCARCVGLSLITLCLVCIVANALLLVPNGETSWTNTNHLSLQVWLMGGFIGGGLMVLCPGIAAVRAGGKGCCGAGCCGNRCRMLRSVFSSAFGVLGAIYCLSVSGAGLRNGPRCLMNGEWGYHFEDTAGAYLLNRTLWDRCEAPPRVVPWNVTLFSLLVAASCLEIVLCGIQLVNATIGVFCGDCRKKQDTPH
Put plainly: flow cytometry, internalization analysis on SNU449Tp cells. How it is done:
Cells were transferred to ice-cold buffer to stop the occurrence of internalization and stained with FITC-conjugated anti-human IgG. PI⁻ cells were analyzed by flow cytometry.

B1: humanized monoclonal antibody Ab27-hz9 (scFv-hFc form) (antibody, V domains shown)
VH: QVQLVQSGAEVKKPGASVKVSCKASGYTFTDYEMHWVRQAPGQGLEWMGAIDPETGGTAYNQKFKGRVTMTADKSISTAYMELSRLRSDDTAVYYCARPYLGYWGQGTLVTVSS
VL: EIVLTQSPGTLSLSPGERATLSCRSSQSLVHSNGNTYLHWYQQKPGQAPRLLIYKVSNRFSGIPDRFSGSGSGTDFTLTISRLEPEDFAVYYCFQGSHIPLTFGQGTKVEIK
notes: VH and VK genes were synthesized in scFv format and inserted into the pDR-OriP-Fc1 vector, so the molecule tested is an scFv-human Fc fusion; Frameworks are IGHV1-2 and IGKV3-20 with murine residues kept at H71 and H73; also called humanized Ab27
As to B1, the binding result is given as “binds”.
